The supplement of paper PMC10065799, “High-throughput profiling of sequence recognition by tyrosine kinases and SH2 domains using bacterial peptide display” (eLife, 2023)

How the values were obtained:
AncSZ = test: phosphorylation enrichment, bacterial display (enrichment ratio); higher = better substrate or ligand; peptides without Tyr show the background
EPHB1 = EPHB1 (UniProt P54762); test: as above
EPHB2 = EPHB2 (UniProt P29323); test: as above
FGFR1 = FGFR1 (UniProt P11362); test: as above
FGFR1, sequence (P11362 whole entry, looked up): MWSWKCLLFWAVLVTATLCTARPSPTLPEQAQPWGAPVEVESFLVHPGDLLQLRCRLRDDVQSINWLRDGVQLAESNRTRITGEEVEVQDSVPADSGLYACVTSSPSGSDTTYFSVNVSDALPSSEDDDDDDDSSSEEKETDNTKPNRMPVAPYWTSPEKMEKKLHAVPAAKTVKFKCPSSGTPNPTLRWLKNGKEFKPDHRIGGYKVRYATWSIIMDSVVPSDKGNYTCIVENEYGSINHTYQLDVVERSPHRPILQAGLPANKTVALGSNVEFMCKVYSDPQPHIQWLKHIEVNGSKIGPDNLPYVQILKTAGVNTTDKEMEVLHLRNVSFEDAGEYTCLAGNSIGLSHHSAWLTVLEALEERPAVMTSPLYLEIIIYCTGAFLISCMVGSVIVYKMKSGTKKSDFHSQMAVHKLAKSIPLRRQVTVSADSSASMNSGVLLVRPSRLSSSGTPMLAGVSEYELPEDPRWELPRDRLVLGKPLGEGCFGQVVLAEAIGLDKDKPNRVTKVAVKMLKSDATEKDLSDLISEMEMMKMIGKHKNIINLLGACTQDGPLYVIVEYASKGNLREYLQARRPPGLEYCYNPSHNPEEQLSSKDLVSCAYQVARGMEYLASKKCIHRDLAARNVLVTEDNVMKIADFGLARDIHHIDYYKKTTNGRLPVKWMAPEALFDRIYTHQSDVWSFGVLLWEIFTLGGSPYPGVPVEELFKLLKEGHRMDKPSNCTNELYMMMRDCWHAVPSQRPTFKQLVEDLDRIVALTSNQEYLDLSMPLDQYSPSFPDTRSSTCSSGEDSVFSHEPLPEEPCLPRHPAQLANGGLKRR

FGFR3 = FGFR3 (UniProt P22607); test: as above
Fer (mouse) = test: as above
Fes = Fes (UniProt P07332); test: as above
Fes, sequence (P07332 whole entry, looked up): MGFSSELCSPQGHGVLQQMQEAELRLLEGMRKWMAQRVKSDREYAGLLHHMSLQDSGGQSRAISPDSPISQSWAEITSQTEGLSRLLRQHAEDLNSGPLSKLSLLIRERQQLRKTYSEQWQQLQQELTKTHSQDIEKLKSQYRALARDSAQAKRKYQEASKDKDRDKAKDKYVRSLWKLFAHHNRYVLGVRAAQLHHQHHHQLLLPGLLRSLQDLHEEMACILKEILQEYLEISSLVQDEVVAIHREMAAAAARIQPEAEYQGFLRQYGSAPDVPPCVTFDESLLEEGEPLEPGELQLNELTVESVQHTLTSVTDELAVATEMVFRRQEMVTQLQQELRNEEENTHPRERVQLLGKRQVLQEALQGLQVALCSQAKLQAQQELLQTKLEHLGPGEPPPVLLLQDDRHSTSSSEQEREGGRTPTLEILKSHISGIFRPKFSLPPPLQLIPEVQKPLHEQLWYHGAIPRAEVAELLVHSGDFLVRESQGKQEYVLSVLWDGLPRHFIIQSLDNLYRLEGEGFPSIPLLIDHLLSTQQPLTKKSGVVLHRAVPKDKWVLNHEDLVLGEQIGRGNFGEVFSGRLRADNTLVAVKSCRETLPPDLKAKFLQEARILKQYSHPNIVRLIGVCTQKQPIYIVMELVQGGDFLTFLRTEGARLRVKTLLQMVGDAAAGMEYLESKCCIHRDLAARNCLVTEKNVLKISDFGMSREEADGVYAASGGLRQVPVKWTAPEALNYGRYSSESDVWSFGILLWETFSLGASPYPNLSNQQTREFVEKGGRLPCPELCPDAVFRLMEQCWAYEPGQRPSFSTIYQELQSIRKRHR

Fyn = Fyn (UniProt P06241); test: as above
Fyn, sequence (P06241 whole entry, looked up): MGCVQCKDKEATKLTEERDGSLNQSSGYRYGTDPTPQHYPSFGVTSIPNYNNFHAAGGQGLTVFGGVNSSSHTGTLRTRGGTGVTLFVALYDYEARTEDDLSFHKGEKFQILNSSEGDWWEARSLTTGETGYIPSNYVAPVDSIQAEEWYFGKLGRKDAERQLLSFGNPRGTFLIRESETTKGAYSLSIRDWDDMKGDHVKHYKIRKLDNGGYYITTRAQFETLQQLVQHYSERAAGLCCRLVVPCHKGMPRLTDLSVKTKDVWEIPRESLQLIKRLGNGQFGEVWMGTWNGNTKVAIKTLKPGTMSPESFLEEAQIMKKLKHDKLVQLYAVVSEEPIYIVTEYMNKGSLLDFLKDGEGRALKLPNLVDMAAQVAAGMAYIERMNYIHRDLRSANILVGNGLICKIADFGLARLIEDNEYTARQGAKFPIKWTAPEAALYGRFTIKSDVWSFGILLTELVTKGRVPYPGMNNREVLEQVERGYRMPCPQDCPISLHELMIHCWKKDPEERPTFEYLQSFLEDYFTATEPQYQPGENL

Hck = Hck (UniProt P08631); test: as above
Hck, sequence (P08631 whole entry, looked up): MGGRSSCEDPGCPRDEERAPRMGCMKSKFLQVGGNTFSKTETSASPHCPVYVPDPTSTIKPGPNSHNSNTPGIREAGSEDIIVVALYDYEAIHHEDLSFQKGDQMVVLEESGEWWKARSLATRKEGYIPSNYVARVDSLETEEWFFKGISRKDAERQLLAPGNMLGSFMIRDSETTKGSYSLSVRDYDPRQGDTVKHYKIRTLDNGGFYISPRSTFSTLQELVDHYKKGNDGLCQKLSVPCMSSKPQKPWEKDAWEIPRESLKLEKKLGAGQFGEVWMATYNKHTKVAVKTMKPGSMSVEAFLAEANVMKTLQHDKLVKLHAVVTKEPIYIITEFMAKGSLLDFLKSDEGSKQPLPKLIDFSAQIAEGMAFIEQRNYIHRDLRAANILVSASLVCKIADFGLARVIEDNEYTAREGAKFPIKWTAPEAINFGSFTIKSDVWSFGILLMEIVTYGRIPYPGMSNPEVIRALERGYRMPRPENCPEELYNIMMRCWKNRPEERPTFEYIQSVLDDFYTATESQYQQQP

Jak2 = Jak2 (UniProt O60674); test: as above
Jak2, sequence (O60674 whole entry, looked up): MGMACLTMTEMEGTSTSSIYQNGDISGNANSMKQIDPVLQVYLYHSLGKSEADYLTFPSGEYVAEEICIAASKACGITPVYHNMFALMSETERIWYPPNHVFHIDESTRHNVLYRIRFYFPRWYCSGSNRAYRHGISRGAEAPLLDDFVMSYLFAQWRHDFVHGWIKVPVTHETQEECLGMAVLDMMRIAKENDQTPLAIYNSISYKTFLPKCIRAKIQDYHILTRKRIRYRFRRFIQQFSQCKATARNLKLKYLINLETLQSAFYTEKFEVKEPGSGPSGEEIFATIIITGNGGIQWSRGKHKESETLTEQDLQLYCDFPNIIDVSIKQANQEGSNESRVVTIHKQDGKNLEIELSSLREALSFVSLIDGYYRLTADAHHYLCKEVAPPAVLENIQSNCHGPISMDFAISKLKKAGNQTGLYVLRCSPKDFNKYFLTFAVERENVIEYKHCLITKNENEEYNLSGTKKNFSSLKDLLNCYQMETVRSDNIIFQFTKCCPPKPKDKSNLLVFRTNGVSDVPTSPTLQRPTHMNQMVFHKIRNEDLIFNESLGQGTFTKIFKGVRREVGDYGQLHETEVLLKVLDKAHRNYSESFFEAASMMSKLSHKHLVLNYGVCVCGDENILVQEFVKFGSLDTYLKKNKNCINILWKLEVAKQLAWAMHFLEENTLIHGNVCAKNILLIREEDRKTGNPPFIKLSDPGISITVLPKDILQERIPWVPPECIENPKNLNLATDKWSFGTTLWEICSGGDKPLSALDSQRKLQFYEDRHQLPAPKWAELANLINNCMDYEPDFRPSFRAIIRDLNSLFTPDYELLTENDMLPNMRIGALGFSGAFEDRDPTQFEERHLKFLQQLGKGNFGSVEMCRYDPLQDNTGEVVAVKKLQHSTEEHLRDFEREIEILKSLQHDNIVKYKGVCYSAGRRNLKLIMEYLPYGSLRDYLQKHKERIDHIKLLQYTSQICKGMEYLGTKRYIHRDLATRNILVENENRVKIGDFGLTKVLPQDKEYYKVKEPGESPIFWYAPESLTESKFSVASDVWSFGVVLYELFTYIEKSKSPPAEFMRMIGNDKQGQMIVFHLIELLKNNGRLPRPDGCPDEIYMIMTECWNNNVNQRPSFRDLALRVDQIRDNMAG

MERTK = MERTK (UniProt Q12866); test: as above
c-Abl (mouse) = test: as above
c-Src = test: as above
Grb2 SH2 = Grb2 SH2 (UniProt P62993); test: SH2 binding enrichment of the phosphorylated peptide, bacterial display (enrichment ratio); higher = better substrate or ligand; peptides without Tyr show the background
Grb2 SH2, sequence (P62993 whole entry, looked up): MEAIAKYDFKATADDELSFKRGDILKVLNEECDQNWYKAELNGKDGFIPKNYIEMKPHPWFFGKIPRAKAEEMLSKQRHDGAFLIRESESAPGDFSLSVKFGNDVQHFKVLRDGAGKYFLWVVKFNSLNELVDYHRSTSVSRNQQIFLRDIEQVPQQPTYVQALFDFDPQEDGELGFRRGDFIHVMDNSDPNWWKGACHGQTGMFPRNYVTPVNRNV

SHP2-C SH2 = test: as above
c-Src SH2 = test: as above
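Wherever SH2 binding enrichment of the phosphorylated peptide, bacterial display is given: peptide library displayed on the E. coli surface as eCPX fusions, selected cells deep-sequenced, score is each peptide's frequency after selection divided by its frequency in the input.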
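Wherever phosphorylation enrichment, bacterial display is given: 11-residue human phosphosite peptides and single-mutation variants displayed on the E. coli surface, counted by deep sequencing, each peptide's frequency after selection divided by its frequency in the unselected input library; frequency after pTyr selection over input frequency; kinase dosed for 20-30% of maximal phosphorylation in three min.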

EPHB1, sequence (P54762 whole entry, looked up): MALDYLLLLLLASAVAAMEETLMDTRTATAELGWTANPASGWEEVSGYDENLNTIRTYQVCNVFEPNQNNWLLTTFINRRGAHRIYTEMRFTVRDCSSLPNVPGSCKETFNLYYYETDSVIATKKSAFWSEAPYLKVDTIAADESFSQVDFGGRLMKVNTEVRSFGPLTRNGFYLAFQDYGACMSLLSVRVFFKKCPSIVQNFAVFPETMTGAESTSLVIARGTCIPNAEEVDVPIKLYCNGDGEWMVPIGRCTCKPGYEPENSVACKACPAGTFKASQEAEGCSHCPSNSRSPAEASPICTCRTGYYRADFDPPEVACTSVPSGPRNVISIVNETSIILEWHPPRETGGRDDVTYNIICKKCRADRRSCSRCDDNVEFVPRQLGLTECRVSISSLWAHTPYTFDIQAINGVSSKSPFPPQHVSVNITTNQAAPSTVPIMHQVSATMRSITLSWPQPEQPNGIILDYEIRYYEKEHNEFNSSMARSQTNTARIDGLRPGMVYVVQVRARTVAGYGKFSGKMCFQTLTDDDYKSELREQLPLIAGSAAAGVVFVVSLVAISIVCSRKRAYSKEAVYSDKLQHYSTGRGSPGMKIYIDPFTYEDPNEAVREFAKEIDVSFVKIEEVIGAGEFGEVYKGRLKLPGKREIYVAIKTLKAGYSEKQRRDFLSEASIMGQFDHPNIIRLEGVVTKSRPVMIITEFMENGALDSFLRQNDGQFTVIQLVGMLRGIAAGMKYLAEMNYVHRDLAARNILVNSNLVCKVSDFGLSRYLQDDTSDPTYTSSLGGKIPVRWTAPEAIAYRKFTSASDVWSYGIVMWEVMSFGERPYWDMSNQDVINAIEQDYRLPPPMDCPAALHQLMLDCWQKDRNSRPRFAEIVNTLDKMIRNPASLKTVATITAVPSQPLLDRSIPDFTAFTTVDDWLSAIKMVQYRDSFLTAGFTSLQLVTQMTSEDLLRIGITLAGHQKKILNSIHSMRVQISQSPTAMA

Which phosphorylation enrichment (AncSZ) does the source give for AIDVGYRLIDC [AKR1B1_Y40_H42L] here?
The phosphorylation enrichment was 0.874.

And the phosphorylation enrichment (EPHB1)?
The phosphorylation enrichment was 0.456.

What about the phosphorylation enrichment (EPHB2) of the same sequence?
Its phosphorylation enrichment is 0.45.

What about the phosphorylation enrichment (FGFR1) of the same sequence?
The phosphorylation enrichment was 0.514.

What about the phosphorylation enrichment (FGFR3) of the same sequence?
Its phosphorylation enrichment is 0.594.

And the phosphorylation enrichment (Fer (mouse))?
The phosphorylation enrichment was 0.424.

What about the phosphorylation enrichment (Fes) of the same sequence?
The phosphorylation enrichment was 1.2.

What about the phosphorylation enrichment (Fyn) of the same sequence?
The phosphorylation enrichment was 0.428.

What about the phosphorylation enrichment (Hck) of the same sequence?
The phosphorylation enrichment was 0.417.

And the phosphorylation enrichment (Jak2)?
Its phosphorylation enrichment is 0.792.

What about the phosphorylation enrichment (MERTK) of the same sequence?
Its phosphorylation enrichment is 0.39.

And the phosphorylation enrichment (c-Abl (mouse))?
The phosphorylation enrichment was 0.861.

What about the phosphorylation enrichment (c-Src) of the same sequence?
The phosphorylation enrichment was 0.512.

And the SH2 binding enrichment (Grb2 SH2)?
Its SH2 binding enrichment is 0.993.

What about the SH2 binding enrichment (SHP2-C SH2) of the same sequence?
The SH2 binding enrichment was 0.7.

And the SH2 binding enrichment (c-Src SH2)?
Its SH2 binding enrichment is 2.02.

For RSACTYLAPHL [PLK3_Y615_S618P], which phosphorylation enrichment (AncSZ) is on record?
The phosphorylation enrichment was 2.67.

And the phosphorylation enrichment (EPHB1)?
Its phosphorylation enrichment is 1.88.

And the phosphorylation enrichment (EPHB2)?
The phosphorylation enrichment was 1.25.

And the phosphorylation enrichment (FGFR1)?
The phosphorylation enrichment was 0.691.

What about the phosphorylation enrichment (FGFR3) of the same sequence?
Its phosphorylation enrichment is 0.71.

What about the phosphorylation enrichment (Fer (mouse)) of the same sequence?
Its phosphorylation enrichment is 0.589.

What about the phosphorylation enrichment (Fes) of the same sequence?
The phosphorylation enrichment was 1.02.

And the phosphorylation enrichment (Fyn)?
The phosphorylation enrichment was 1.1.

What about the phosphorylation enrichment (Hck) of the same sequence?
Its phosphorylation enrichment is 1.45.

What about the phosphorylation enrichment (Jak2) of the same sequence?
Its phosphorylation enrichment is 1.59.

And the phosphorylation enrichment (MERTK)?
The phosphorylation enrichment was 1.02.

And the phosphorylation enrichment (c-Abl (mouse))?
The phosphorylation enrichment was 6.67.

What about the phosphorylation enrichment (c-Src) of the same sequence?
Its phosphorylation enrichment is 2.74.

What about the SH2 binding enrichment (Grb2 SH2) of the same sequence?
Its SH2 binding enrichment is 0.876.

What about the SH2 binding enrichment (SHP2-C SH2) of the same sequence?
Its SH2 binding enrichment is 0.648.

What about the SH2 binding enrichment (c-Src SH2) of the same sequence?
Its SH2 binding enrichment is 0.562.

LQFKNYQQLFD [MAN2A1_Y442] was tested. Which phosphorylation enrichment (AncSZ) did it give?
Its phosphorylation enrichment is 0.944.

And the phosphorylation enrichment (EPHB1)?
The phosphorylation enrichment was 0.641.

And the phosphorylation enrichment (EPHB2)?
Its phosphorylation enrichment is 0.532.

And the phosphorylation enrichment (FGFR1)?
The phosphorylation enrichment was 0.453.

And the phosphorylation enrichment (FGFR3)?
Its phosphorylation enrichment is 0.679.

What about the phosphorylation enrichment (Fer (mouse)) of the same sequence?
The phosphorylation enrichment was 0.391.

And the phosphorylation enrichment (Fes)?
The phosphorylation enrichment was 0.985.

What about the phosphorylation enrichment (Fyn) of the same sequence?
Its phosphorylation enrichment is 0.379.

What about the phosphorylation enrichment (Hck) of the same sequence?
The phosphorylation enrichment was 0.527.

What about the phosphorylation enrichment (Jak2) of the same sequence?
Its phosphorylation enrichment is 0.882.

And the phosphorylation enrichment (MERTK)?
The phosphorylation enrichment was 0.358.

What about the phosphorylation enrichment (c-Abl (mouse)) of the same sequence?
The phosphorylation enrichment was 0.636.

And the phosphorylation enrichment (c-Src)?
Its phosphorylation enrichment is 0.377.

And the SH2 binding enrichment (Grb2 SH2)?
The SH2 binding enrichment was 0.76.

What about the SH2 binding enrichment (SHP2-C SH2) of the same sequence?
The SH2 binding enrichment was 0.784.

What about the SH2 binding enrichment (c-Src SH2) of the same sequence?
Its SH2 binding enrichment is 1.58.

With GKGGSYSQAAC [HLA-B_Y344] as the sequence, how does the phosphorylation enrichment (AncSZ) read?
The phosphorylation enrichment was 0.452.

What about the phosphorylation enrichment (EPHB1) of the same sequence?
The phosphorylation enrichment was 0.352.

And the phosphorylation enrichment (EPHB2)?
The phosphorylation enrichment was 0.365.

And the phosphorylation enrichment (FGFR1)?
The phosphorylation enrichment was 0.385.

What about the phosphorylation enrichment (FGFR3) of the same sequence?
The phosphorylation enrichment was 0.444.

What about the phosphorylation enrichment (Fer (mouse)) of the same sequence?
Its phosphorylation enrichment is 0.408.

And the phosphorylation enrichment (Fes)?
The phosphorylation enrichment was 0.649.

And the phosphorylation enrichment (Fyn)?
The phosphorylation enrichment was 0.342.

What about the phosphorylation enrichment (Hck) of the same sequence?
The phosphorylation enrichment was 0.419.

What about the phosphorylation enrichment (Jak2) of the same sequence?
The phosphorylation enrichment was 0.569.

What about the phosphorylation enrichment (MERTK) of the same sequence?
The phosphorylation enrichment was 0.377.

And the phosphorylation enrichment (c-Abl (mouse))?
The phosphorylation enrichment was 0.625.

And the phosphorylation enrichment (c-Src)?
Its phosphorylation enrichment is 0.396.

And the SH2 binding enrichment (Grb2 SH2)?
Its SH2 binding enrichment is 0.971.

What about the SH2 binding enrichment (SHP2-C SH2) of the same sequence?
The SH2 binding enrichment was 0.881.

And the SH2 binding enrichment (c-Src SH2)?
Its SH2 binding enrichment is 0.746.
